Measured values: patent US20260227403A1 (HENRY M JACKSON FOUNDATION FOR THE ADVANCEMENT OF MILITARY …, published 2026)

Target: T1, ERG3 (pCMV-ERG3 plasmid, Exons 5-16, NM_001136154) (UniProt P11308-3 40-486)
T1 construct: Expressed in HEK-293 cells and tested as cell lysate on an immunoblot; also called ETS Transcription Factor ERG
T1 sequence (looked up): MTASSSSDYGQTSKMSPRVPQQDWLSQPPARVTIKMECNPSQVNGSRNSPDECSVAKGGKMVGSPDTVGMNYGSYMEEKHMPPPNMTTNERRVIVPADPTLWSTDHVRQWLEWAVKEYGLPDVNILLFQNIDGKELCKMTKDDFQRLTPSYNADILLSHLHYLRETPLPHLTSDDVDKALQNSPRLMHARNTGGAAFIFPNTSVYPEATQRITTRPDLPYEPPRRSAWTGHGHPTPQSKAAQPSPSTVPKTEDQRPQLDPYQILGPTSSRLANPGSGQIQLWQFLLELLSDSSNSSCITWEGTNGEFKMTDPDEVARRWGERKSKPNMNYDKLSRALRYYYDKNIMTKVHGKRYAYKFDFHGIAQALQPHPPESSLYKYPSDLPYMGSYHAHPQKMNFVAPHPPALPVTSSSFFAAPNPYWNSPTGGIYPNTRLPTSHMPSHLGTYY
Assay: immunoblot of cell lysates (HEK-293 2 µg per lane) probed with 29E4; the protein is shown present in panel C
Description: Immunoblots using antibodies against ETV1 (A and H), ETV4 (B), ERG (C), SPDEF (D), FLI1 (E), FLAG (F), and GAPDH (G), as a loading control. […] PC3 cells were transfected with 25 nM non-targeting (NT) siRNA or ETV-1 siRNA oligos (lanes 1 and 2, respectively). […] were infected with either a control vector (lane 10) or adenoviral vector expressing FLI1 (lanes 11).
Cell lysates were then cleared by centrifugation at 10,000×g for 15 minutes at 4° C. and transferred to fresh tubes. Protein concentration was measured using Protein Assay Reagent (Bio-Rad, Hercules, CA). […] Separated proteins were transferred onto PVDF membranes using a Trans-Blot SD semi-dry transfer cell (BioRad) at 25 V for 90 minutes. Membranes were blocked in blocking buffer (Tris buffered saline with 0.25% Tween 20 (TBST) containing 1% BSA) for one hour at room temperature before incubation with primary antibodies (1 ng/mL) for 12 hours at 4° C. Membranes were then washed with wash buffer (TBST) in three ten-minute washes before treatment with IRDye 680RD conjugated goat anti-rabbit or IRDye 800 RD conjugated goat anti-mouse secondary antibodies (LI-COR Biosciences, Lincoln, NE) for three hours at room temperature.

binding result: no binding
B1: ETV1 rabbit monoclonal antibody (29E4) (antibody, V domains shown)
VH: QELEESGGDLVKPGASLTLTCTASGFFFSAENHICWVRQAPGKGLEWIGCVYIGSYVGGSGDPYYASWAKGRFTISKTSSTTVTLQMSSLTAADTATYFCARDLGSLWGPGTLVTVSS
VL: DVVMTQTASSVSAAVGGTVTIACQSSQSVYDNNNLAWFQQKPGQPPKRLIYSASTLASGVSSRFKGSGYGTQFTLTISDVQCDDAATYYCVGAFSGYIFVFGGGTEVVVK
notes: constant regions are not; also called 29E4 mAb; ETV1 29E4 mAb
